Target: recombinant glyceraldehyde 3-phosphate dehydrogenase (GAPDH) tetramer (UniProt P04406 1-335)
Assay: ITC

recombinant glyceraldehyde 3-phosphate dehydrogenase (GAPDH) tetramer, sequence (P04406 whole entry): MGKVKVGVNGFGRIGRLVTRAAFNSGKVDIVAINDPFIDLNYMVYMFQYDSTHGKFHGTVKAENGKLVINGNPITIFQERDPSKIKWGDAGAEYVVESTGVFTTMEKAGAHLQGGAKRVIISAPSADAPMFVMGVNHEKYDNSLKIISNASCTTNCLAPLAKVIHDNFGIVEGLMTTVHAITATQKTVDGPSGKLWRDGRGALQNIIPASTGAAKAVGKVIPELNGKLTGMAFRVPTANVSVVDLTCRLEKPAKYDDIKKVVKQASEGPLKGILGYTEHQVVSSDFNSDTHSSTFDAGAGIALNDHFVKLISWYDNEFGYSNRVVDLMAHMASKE

Binder | Kd [mM]
MEELQDDYEDMMEENLEQEEYEDPDIPESQ (domain or fragment) [recombinantly expressed AE1 peptide spanning residues 1-30] | 44.8
recombinantly expressed band 3 (AE1) peptide, residues 1-56 (domain or fragment) MEELQDDYEDMMEENLEQEEYEDPDIPESQMEEPAAHDTEATATDYHTTSHPGTHK | 2.56

From publication PMC8561282 (Haematologica, 2021)
